± gives the uncertainty stated by the source.
Assay: amyloid nucleation score (Sup35N fusion, yeast selection) (log enrichment); library NNK3; higher = more nucleation; inactive = no reads after selection
Procedure, shortened: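 Sup35N was fused to peptides of 20 random codons and expressed in psi-negative yeast, which were induced with 100 μM copper sulfate for 24 hours and then grown on medium lacking adenine and uracil for 7 days at 30°C. Plasmid inserts from input and output were sequenced on Illumina. The nucleation score is the DiMSum log enrichment of output over input reads, centred on the mode score of non-aggregating sequences. Sequences with under 100 input reads were left out, and random libraries had three technical output replicates.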

Substance	amyloid nucleation score
LEALSLDVNDVVRQYSNSEG	inactive
LELGIYHLMERGIL	inactive
LELVRG	inactive
LEQYEKLRGSPKVNRRMCNQ	inactive
LERTNWCQYHL	inactive
LERVSVSTQYLRLHLDLNSF	inactive
LFCCPDLFRRG	2.4 ± 0.09
LFCIWSSVLVRVHVFQKW	inactive
LFDFYRNSVTD	inactive
LFEGDQDGMRVCSHHMVFMI	inactive
LFFCNCCYGICS	2.4 ± 0.079
LFFFMALRVGLPNNTNMGMK	inactive
LFFMIVFSLYEFVMCFSSTR	inactive
LFFSNT	inactive
LFFYYMNSDLVR	inactive
LFGTFYPFSTTRFNVVKPDG	inactive
LFISFIVLRKALFTYTCLCF	inactive
LFKMPCLILVWPDSMFATSL	inactive
LFLIGLLGRCDGDFYCIYYT	1.04 ± 0.21
LFLISG	inactive
LFRGRCAPLFSQSVA	inactive
LFRLKNRFEDKVGNSIRLWE	inactive
LFTACNLKIDVLLSTRSFAL	1.6 ± 0.079

Substance	amyloid nucleation score
LFTELGSILF	inactive
LFTLWVMRFEFWYSCFFVSV	inactive
LFVASLTTCIFWA	2.4 ± 0.054
LFVIKGENNSEEYTNVNFWR	0.389 ± 0.23
LFVIVMSFLFGWFFYRNNYA	1.84 ± 0.099
LFVMSLFGHLGLQIYRCLAL	inactive
LFVMVQLCQL	0.797 ± 0.13
LGAAASSGRPMLTKYHLFWA	inactive
LGAVCVQMKKIDLSKTLETR	inactive
LGESMGRHVKRNKSAPERGM	inactive
LGFSVYSLA	inactive
LGGKDSASILIVPWTILSGL	inactive
LGGLCL	inactive
LGIIH	inactive
LGMIHFVFMYFETYCYTYTI	inactive
LGMVYICYYISVIVDPYSYS	0.246 ± 0.25
LGNSFLE	-0.445 ± 0.84
LGRYWHVIKLDLVPHMKWCE	inactive
LGSLVLLRFWY	-0.181 ± 1.4
LGTPYMDMRG	1.29 ± 0.15
LGVPSIPGT	inactive
LGVTGINSVIYMYEMVS	inactive
LGWLVGSGKVNRVRPGSLNS	inactive

Substance	amyloid nucleation score
LHCLEFSCVRHSVRY	2.14 ± 0.073
LHCPISYLAMSKKS	inactive
LHLHFAIKKLGLRLSTKWWV	inactive
LHPLYRFSANSSKDLFTSRL	inactive
LHPYHYIWKMAHL	inactive
LIDSADWRCVMVVIRLGRCR	inactive
LIFCNATGFTYRWPLTWVVM	inactive
LIFFWSIEA	inactive
LIFTTTRSLFTALPGFEYKD	inactive
LIISFKYCFPWKVVSTSVYN	1.17 ± 0.17
LIKSSRLCLNRWEWAAGSGM	inactive
LILAMSRLALWSL	inactive
LILYIVAISCSSARSLLRVG	inactive
LINKHNRVMYLAICA	inactive
LINKLENLIYSG	inactive
LINSNVNTVSLFIPFSRMED	1.58 ± 0.1
LIRMQVGLLGV	inactive
LISLPVG	-0.254 ± 0.7
LITKWKWEFANTQWRSGQKG	1.36 ± 0.15
LIVLVMHKLYKLWSGRLRVV	inactive
LIYILWH	inactive
LIYRLGNVHVPKYW	inactive
LKCDLMWLMLDNYTAVDSFR	inactive

Substance	amyloid nucleation score
LKCDWC	inactive
LKDYYFVLGHALYVLRNPMS	1.08 ± 0.13
LKFEVVMVLFSTIC	inactive
LKHVWLSDRALGSSLTCMAG	inactive
LKKVLPYGVRWTDITGPWVS	inactive
LKMSLPYNMMVIILKRGGAY	inactive
LKVSAFAYDKFLQRYMTVVT	inactive
LKVYR	inactive
LKYNEKDPFECH	-0.318 ± 0.42
LLAVLALVGLC	inactive
LLCIFDSRCERLNVLAFRYV	inactive
LLCLLQEIGFVAITGWI	inactive
LLDDVIRDAMPGSAGRSISG	inactive
LLFLNFTICCYSFRKGMHGF	-0.344 ± 0.32
LLGRSLH	inactive
LLGVLDSLMRRFMNHINETG	inactive
LLGVWG	0.217 ± 0.53
LLHTTLA	inactive
LLIGSGVSYFKTWFARHLTA	inactive
LLLRLLAWYMMVS	inactive
LLLSFYLNGILVIHML	inactive
LLMGFWIWFINGVCNVRTDS	inactive
LLMLTEQ	inactive

Substance	amyloid nucleation score
LLRKRHVLNTK	inactive
LLRVSYFIVLRTLN	inactive
LLSFENNSQLVYVCIDNTLE	inactive
LLSVTCTG	inactive
LLTNLCIQYISSTLYYDRLF	inactive
LLVANG	inactive
LLVAYDQIFNF	inactive
LLVLKYVMSRTWWSWGA	inactive
LLVSACA	inactive
LLVVNNCIYGMVKRSIGYD	2.13 ± 0.07
LLVWNLMTRFYYF	inactive
LLWLLIWEFHT	inactive
LLYNTMSLSSSWEY	0.893 ± 0.17
LLYYFYTFTQGR	-0.148 ± 0.43
LMGKTHFLSVVWVVQVG	inactive
LMILLGSKFRNANGTTSMLK	inactive
LMKSMSNLLYADLKEYSQVG	inactive
LMNKKCNPGDKTLQIYIRRG	inactive
LMSLWLLLWGTEESALDMAD	inactive
LMSYV	inactive
LNALLGQYSDISMRISLNVS	inactive
LNELHMFSGPAYLFSVFRDM	inactive
LNFRSV	inactive

Substance	amyloid nucleation score
LNFWTIAWARWRIFLCSVLQ	inactive
LNLVRNWTISAAGKVALKWS	inactive
LNMIHSVA	inactive
LNPLPQRLYSPCSLKFCNDG	inactive
LNPVKKLLGRLSGSREG	inactive
LNPVRSYSKNNIYLLTMLAL	inactive
LNRWCCFSVITMCLMANFDA	2 ± 0.089
LNSFQHGY	inactive
LNSKSSLVPNMLWDMREHAI	1.04 ± 0.12
LNSMGYFILFYIYRFLENLD	inactive
LNSYSLNWRRCMGVQHSLYP	inactive
LNVSRGWLVNILPYGCNI	inactive
LNVTLIMNRRLFMGTFHLW	inactive
LNWLAFSR	inactive
LNYDSSTRLNVLW	inactive
LNYEIWNISRFRTFFTGVSA	-0.332 ± 0.73
LNYFISLSGRSLPVSCNQIY	inactive
LNYMSDFYLLLSERTCVYYQ	0.754 ± 0.16
LNYVIVDSLDKVVQITREYS	inactive
LPAGFKSR	inactive
LPFCLN	inactive
LPGCSTWFGVFFIHDFNLTL	1.69 ± 0.091
LPHVAVEAVTLAMWVE	inactive

Substance	amyloid nucleation score
LPICGAD	inactive
LPKCGPRYFDWLNAPEDCMF	inactive
LPLLTYSSVSVRPLTSW	inactive
LPTCYSF	inactive
LQCLVSAKCNFCMYR	0.869 ± 0.19
LQFDYLMIYLVQFSVLWVCL	inactive
LQKGGNITCTVNHFMWVFAH	0.592 ± 0.32
LQVHILFMAIKYFSMAVV	inactive
LQYLVNLLMQWVLRKIVQKV	inactive
LRARPLLITFGVEWGSASDP	0.465 ± 0.22
LRATHVSVKGSGRYSVSTFS	inactive
LRDMTGILPRGRFADETSRF	inactive
LREVLCCVSTDSYVFILLRG	1.01 ± 0.14
LRGILSIVLVCGENYIKHCG	inactive
LRGITLSMQGCTDWFVMYLC	inactive
LRGYSASSSIVCESSRYARL	inactive
LRLGIEMNTIGTLNMGPLSL	inactive
LRNTFKCVTIRALGSKGGRA	inactive
LRPYHSRVWCVRLQSYSMVR	inactive
LRRDCFLDRSSLRHPVWEWL	inactive
LRSCSSWRRLFKRIVQRHWV	inactive
LRSYFALINRLPCTCTRGGM	inactive
LRTLSGNICANL	inactive

— the supplement of paper PMC12042874
